Among the data in patent US20020001857A1 are absorbance values, retold here.

Experiment [1] has as its target PHF-tau (human) (UniProt P10636). Nature of the experiment: competition ELISA on captured PHF-tau; biotinylated AT8, unlabeled competitor AT8 at 10 ug/ml.
Experiment [2] shares this target. Nature of the experiment: competition ELISA on captured PHF-tau; biotinylated AT8, unlabeled competitor AT120 at 10 ug/ml. (In general: An ELISA detects its analyte on a solid surface through an enzyme-linked reagent.)
For experiment [3] the target is unchanged. Kind of experiment: competition ELISA on captured PHF-tau; biotinylated AT120, unlabeled competitor AT8 at 10 ug/ml.
The target is the same in experiment [4]. Nature of the experiment: sandwich ELISA, AT120 coated, no tau added (background), detection with biotinylated BT2 and HT7.
The target of experiment [5] is affinity-purified human normal tau (human) (UniProt P10636). The description is as above.
Experiment [6] concerns the target PHF-tau (human) (UniProt P10636). Nature of the experiment: competition ELISA on captured PHF-tau; biotinylated AT120, unlabeled competitor AT120 at 10 ug/ml.
The target is the same in experiment [7]. Kind of experiment: sandwich ELISA, AT120 coated, tau spiked in tau-negative CSF, detection with biotinylated BT2 and HT7.
For experiment [8], the target named is affinity-purified human normal tau (human) (UniProt P10636). The description is as above.
Experiment [9] addresses PHF-tau (human) (UniProt P10636). Kind of experiment: competition ELISA on captured PHF-tau; biotinylated BT2, unlabeled competitor BT2 at 10 ug/ml.
The target is the same in experiment [10]. Kind of experiment: competition ELISA on captured PHF-tau; biotinylated BT2, unlabeled competitor AT120 at 10 ug/ml.

With monoclonal antibody AT8, the values for the absorbance in [1] and in experiment [2] were 0.001 absorbance and 0.372 absorbance, respectively.
In the case of monoclonal antibody AT120, the absorbance in [3] stood at 0.476 absorbance. Also, the absorbance at 0 pg/ml (blank) (milliabsorbance units) in experiment [4] turned out to be 92. For the same substance, in experiment [5], the absorbance at 0 pg/ml (blank) (milliabsorbance units) was found to be 87. In [6], the absorbance stood at 0.001 absorbance. In experiment [7], the absorbance at 10 pg/ml (milliabsorbance units) stood at 143, the absorbance at 20 pg/ml (milliabsorbance units) came to 257, the absorbance at 40 pg/ml (milliabsorbance units) is 566 and the absorbance at 80 pg/ml (milliabsorbance units) came out at 901. The same substance registered an absorbance at 160 pg/ml (milliabsorbance units) in [7] of 1680. In experiment [8], this substance yielded an absorbance at 10 pg/ml (milliabsorbance units) of 154, an absorbance at 20 pg/ml (milliabsorbance units) of 256, an absorbance at 40 pg/ml (milliabsorbance units) of 678 and an absorbance at 80 pg/ml (milliabsorbance units) of 970. In [8], this substance showed an absorbance at 160 pg/ml (milliabsorbance units) of 1610.
monoclonal antibody BT2: the figures for the absorbance in experiment [9] and in experiment [10] were 0.054 absorbance and 0.543 absorbance, respectively.
